Data reported in the supplement of paper PMC9112550, “Optimization of the antimicrobial peptide Bac7 by deep mutational scanning” (BMC Biology, 2022).

These sequences were tested on Escherichia coli TOP10 (assay: shrunken log2 fold change of peptide-encoding DNA abundance (4.5 h post-induction vs induction); higher = less antimicrobial activity (less host growth inhibition)). Conditions: time post-induction: 4.5 h; library: site-saturation at positions 5, 18, 19, 20.
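Further: peptides expressed intracellularly from a pBAD plasmid library in pooled LB shake-flask culture, induced with 0.3% L-arabinose, DNA abundance read by NGS, three biological replicates, DESeq2 with apeglm shrinkage.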

| Sequence | shrunken log2 fold change |
| --- | --- |
| RRIRTRPPRLPRPRPRPTNCPRP | 0.216 |
| RRIRNRPPRLPRPRPRPKVMPRP | -0.0516 |
| RRIRERPPRLPRPRPRPHTMPRP | -0.0656 |
| RRIRCRPPRLPRPRPRPFFWPRP | 0.359 |
| RRIRGRPPRLPRPRPRPCYRPRP | -0.0861 |
| RRIRKRPPRLPRPRPRPQCWPRP | 0.00452 |
| RRIRRRPPRLPRPRPRPALMPRP | 0.195 |
| RRIRKRPPRLPRPRPRPSPNPRP | 1.52 |
| RRIRHRPPRLPRPRPRPWTAPRP | -0.0875 |
| RRIRKRPPRLPRPRPRPLQIPRP | 0.0389 |
| RRIRSRPPRLPRPRPRPWKQPRP | -0.00145 |
| RRIRDRPPRLPRPRPRPFSAPRP | -0.36 |
| RRIRKRPPRLPRPRPRPIPSPRP | 0.422 |
| RRIRERPPRLPRPRPRPWIQPRP | -0.0122 |
| RRIRLRPPRLPRPRPRPILYPRP | -0.314 |
| RRIRNRPPRLPRPRPRPFEKPRP | -0.0819 |
| RRIRERPPRLPRPRPRPMFMPRP | -0.468 |
| RRIRHRPPRLPRPRPRPGDTPRP | -0.0174 |
| RRIRCRPPRLPRPRPRPQGNPRP | -0.695 |
| RRIRGRPPRLPRPRPRPFHKPRP | -0.411 |
| RRIRVRPPRLPRPRPRPQGFPRP | -0.0921 |
| RRIRSRPPRLPRPRPRPLGKPRP | 2.2 |
| RRIRWRPPRLPRPRPRPITNPRP | -0.0654 |
| RRIRMRPPRLPRPRPRPITTPRP | -0.0401 |
| RRIRPRPPRLPRPRPRPNFMPRP | 0.109 |

| Sequence | shrunken log2 fold change |
| --- | --- |
| RRIRLRPPRLPRPRPRPGGSPRP | 0.259 |
| RRIRMRPPRLPRPRPRPWNDPRP | -0.112 |
| RRIRDRPPRLPRPRPRPEDPPRP | 0.439 |
| RRIRDRPPRLPRPRPRPPVTPRP | -0.0696 |
| RRIRMRPPRLPRPRPRPWYAPRP | -0.475 |
| RRIRPRPPRLPRPRPRPAMAPRP | 0.388 |
| RRIRIRPPRLPRPRPRPYAQPRP | -0.121 |
| RRIRGRPPRLPRPRPRPSHPPRP | 0.372 |
| RRIRRRPPRLPRPRPRPVYDPRP | -0.331 |
| RRIRWRPPRLPRPRPRPDMEPRP | -0.0114 |
| RRIRYRPPRLPRPRPRPTCDPRP | -0.424 |
| RRIRNRPPRLPRPRPRPWYTPRP | 0.0349 |
| RRIRNRPPRLPRPRPRPKKYPRP | -0.69 |
| RRIRFRPPRLPRPRPRPFWAPRP | 0.166 |
| RRIRSRPPRLPRPRPRPCWEPRP | 0.311 |
| RRIRTRPPRLPRPRPRPFLHPRP | -0.524 |
| RRIRCRPPRLPRPRPRPRTLPRP | 0.209 |
| RRIRNRPPRLPRPRPRPQIMPRP | -0.127 |
| RRIRMRPPRLPRPRPRPSKPPRP | 0.0519 |
| RRIRWRPPRLPRPRPRPTEVPRP | 0.0181 |
| RRIRIRPPRLPRPRPRPPAFPRP | -0.155 |
| RRIRCRPPRLPRPRPRPKPFPRP | -0.0386 |
| RRIRKRPPRLPRPRPRPVSHPRP | 0.0254 |
| RRIRNRPPRLPRPRPRPDMIPRP | -0.667 |
| RRIRNRPPRLPRPRPRPTVHPRP | -0.514 |

| Sequence | shrunken log2 fold change |
| --- | --- |
| RRIRVRPPRLPRPRPRPCECPRP | 0.00846 |
| RRIRWRPPRLPRPRPRPGLFPRP | 2.38 |
| RRIRERPPRLPRPRPRPHTYPRP | -0.281 |
| RRIRSRPPRLPRPRPRPVAPPRP | 0.397 |
| RRIRNRPPRLPRPRPRPLTKPRP | 0.164 |
| RRIRWRPPRLPRPRPRPNVEPRP | -0.319 |
| RRIRKRPPRLPRPRPRPSLTPRP | -0.0632 |
| RRIRYRPPRLPRPRPRPMLPPRP | -0.0473 |
| RRIRYRPPRLPRPRPRPDIDPRP | -0.172 |
| RRIRMRPPRLPRPRPRPMCLPRP | 0.292 |
| RRIRVRPPRLPRPRPRPWTVPRP | -0.782 |
| RRIRWRPPRLPRPRPRPPYFPRP | -0.0123 |
| RRIRWRPPRLPRPRPRPQHRPRP | 0.25 |
| RRIRCRPPRLPRPRPRPAHMPRP | -0.249 |
| RRIRGRPPRLPRPRPRPIVEPRP | 0.194 |
| RRIRLRPPRLPRPRPRPTETPRP | -0.021 |
| RRIRLRPPRLPRPRPRPNGMPRP | -0.0765 |
| RRIRCRPPRLPRPRPRPDGSPRP | -0.133 |
| RRIRVRPPRLPRPRPRPFTWPRP | -0.327 |
| RRIRTRPPRLPRPRPRPTLSPRP | 0.106 |
| RRIRSRPPRLPRPRPRPANSPRP | -0.564 |
| RRIRARPPRLPRPRPRPILYPRP | -0.348 |
| RRIRGRPPRLPRPRPRPRQQPRP | 0.614 |
| RRIRRRPPRLPRPRPRPPFFPRP | 0.565 |
| RRIRERPPRLPRPRPRPWNQPRP | -0.124 |

| Sequence | shrunken log2 fold change |
| --- | --- |
| RRIRNRPPRLPRPRPRPDCTPRP | 0.0531 |
| RRIRYRPPRLPRPRPRPATFPRP | -0.681 |
| RRIRYRPPRLPRPRPRPLPRPRP | 0.00472 |
| RRIRMRPPRLPRPRPRPCKIPRP | -0.0518 |
| RRIRYRPPRLPRPRPRPPYCPRP | -0.287 |
| RRIRLRPPRLPRPRPRPYWIPRP | -0.00778 |
| RRIRSRPPRLPRPRPRPQLTPRP | -0.136 |
| RRIRRRPPRLPRPRPRPCKYPRP | -0.915 |
| RRIRSRPPRLPRPRPRPFCRPRP | -0.0968 |
| RRIRRRPPRLPRPRPRPNVPPRP | 0.032 |
| RRIRNRPPRLPRPRPRPFCLPRP | -0.363 |
| RRIRFRPPRLPRPRPRPCHQPRP | -0.188 |
| RRIRFRPPRLPRPRPRPWQEPRP | -0.2 |
| RRIRRRPPRLPRPRPRPRSDPRP | 0.323 |
| RRIRDRPPRLPRPRPRPVTTPRP | 0.0135 |
| RRIRQRPPRLPRPRPRPKWQPRP | 0.0435 |
| RRIRNRPPRLPRPRPRPVTRPRP | -0.124 |
| RRIRVRPPRLPRPRPRPNCIPRP | -0.213 |
| RRIRLRPPRLPRPRPRPTCGPRP | 0.281 |
| RRIRRRPPRLPRPRPRPQVGPRP | 0.149 |
| RRIRNRPPRLPRPRPRPMDMPRP | -0.235 |
| RRIRLRPPRLPRPRPRPQGTPRP | 0.0413 |
| RRIRNRPPRLPRPRPRPLFMPRP | -0.235 |
| RRIRARPPRLPRPRPRPVAKPRP | 0.577 |
| RRIRERPPRLPRPRPRPATIPRP | -0.105 |

| Sequence | shrunken log2 fold change |
| --- | --- |
| RRIRWRPPRLPRPRPRPDEKPRP | 0.0625 |
| RRIRMRPPRLPRPRPRPCFDPRP | 0.0386 |
| RRIRHRPPRLPRPRPRPLEWPRP | -0.0135 |
| RRIRERPPRLPRPRPRPGVTPRP | 0.00546 |
| RRIRARPPRLPRPRPRPWYKPRP | -0.229 |
| RRIRQRPPRLPRPRPRPDRCPRP | 0.298 |
| RRIRDRPPRLPRPRPRPDWQPRP | 0.252 |
| RRIRPRPPRLPRPRPRPVARPRP | 0.245 |
| RRIRFRPPRLPRPRPRPYTLPRP | -1.21 |
| RRIRYRPPRLPRPRPRPSVPPRP | -0.497 |
| RRIRNRPPRLPRPRPRPIVCPRP | -0.301 |
| RRIRERPPRLPRPRPRPCGKPRP | -0.00192 |
| RRIRIRPPRLPRPRPRPKIVPRP | -0.716 |
| RRIRQRPPRLPRPRPRPTVNPRP | -0.0853 |
| RRIRGRPPRLPRPRPRPVNWPRP | 0.302 |
| RRIRTRPPRLPRPRPRPMWCPRP | -0.172 |
| RRIRLRPPRLPRPRPRPKGVPRP | 0.0368 |
| RRIRLRPPRLPRPRPRPKDGPRP | -0.0687 |
| RRIRMRPPRLPRPRPRPIHMPRP | -0.221 |
| RRIRYRPPRLPRPRPRPPSPPRP | 0.398 |
| RRIRTRPPRLPRPRPRPENAPRP | -0.49 |
| RRIRDRPPRLPRPRPRPVPVPRP | -0.346 |
| RRIRFRPPRLPRPRPRPGEWPRP | -0.0225 |
| RRIRTRPPRLPRPRPRPFAIPRP | 0.061 |
| RRIRWRPPRLPRPRPRPEDDPRP | 1.19 |

| Sequence | shrunken log2 fold change |
| --- | --- |
| RRIRMRPPRLPRPRPRPNTDPRP | -0.196 |
| RRIRMRPPRLPRPRPRPQFFPRP | -0.207 |
| RRIRVRPPRLPRPRPRPIDIPRP | -0.11 |
| RRIRVRPPRLPRPRPRPGCWPRP | 0.594 |
| RRIRFRPPRLPRPRPRPIFGPRP | 0.449 |
| RRIRNRPPRLPRPRPRPSYNPRP | -0.974 |
| RRIRCRPPRLPRPRPRPHLWPRP | 0.129 |
| RRIRRRPPRLPRPRPRPMPKPRP | 0.0841 |
| RRIRWRPPRLPRPRPRPEPSPRP | 0.39 |
| RRIRARPPRLPRPRPRPATMPRP | 0.413 |
| RRIRNRPPRLPRPRPRPYKKPRP | -0.00559 |
| RRIRCRPPRLPRPRPRPQRAPRP | -0.012 |
| RRIRNRPPRLPRPRPRPMKVPRP | 0.0279 |
| RRIRPRPPRLPRPRPRPADNPRP | -0.428 |
| RRIRVRPPRLPRPRPRPPRIPRP | 0.116 |
| RRIRIRPPRLPRPRPRPGTCPRP | -0.188 |
| RRIRGRPPRLPRPRPRPMSRPRP | 0.00829 |
| RRIRQRPPRLPRPRPRPPLTPRP | 0.0676 |
| RRIRARPPRLPRPRPRPAEFPRP | 0.304 |
| RRIRYRPPRLPRPRPRPCMSPRP | -0.282 |
| RRIRHRPPRLPRPRPRPECNPRP | -0.0866 |
| RRIRARPPRLPRPRPRPHDAPRP | 0.122 |
| RRIRVRPPRLPRPRPRPFIEPRP | -0.468 |
| RRIRPRPPRLPRPRPRPATKPRP | 0.29 |
| RRIRYRPPRLPRPRPRPDSPPRP | -0.391 |
